Measurements as given in PMC3564914, “Transcriptome analysis of bitter acid biosynthesis and precursor pathways in hop (Humulus lupulus)” (BMC Plant Biology, 2013).

Columns and labels:
Assay in all cases: purified protein
Assay type in all cases: biochemical, Humulus lupulus
purified protein [1] = substrate: CC(C)C(=O)C(=O)O; details: anabolic direction, 2 mM glutamate, 50 μM PLP, 100 mM ammonium chloride, Tris HCl pH 8.5, 22°C
purified protein [2] = substrate: CC(C)CC(=O)C(=O)O; details: anabolic direction, 2 mM glutamate, 50 μM PLP, 100 mM ammonium chloride, Tris HCl pH 8.5, 22°C
purified protein [3] = substrate: CC(C)C[C@H](N)C(=O)O; details: catabolic direction, 2 mM 2-oxoglutarate, 50 μM PLP, Tris HCl pH 8.5, 22°C
purified protein [4] = substrate: CC(C)[C@H](N)C(=O)O; details: catabolic direction, 2 mM 2-oxoglutarate, 50 μM PLP, Tris HCl pH 8.5, 22°C
purified protein [5] = substrate: CC[C@H](C)C(=O)C(=O)O; details: anabolic direction, 2 mM glutamate, 50 μM PLP, 100 mM ammonium chloride, Tris HCl pH 8.5, 22°C
purified protein [6] = substrate: CC[C@H](C)[C@H](N)C(=O)O; details: catabolic direction, 2 mM 2-oxoglutarate, 50 μM PLP, Tris HCl pH 8.5, 22°C
purified protein [7] = substrate: N[C@@H](CCC(=O)O)C(=O)O; details: anabolic direction, 0.5 mM ketoisovalerate, 50 μM PLP, 100 mM ammonium chloride, Tris HCl pH 8.5, 22°C
purified protein [8] = substrate: O=C(O)CCC(=O)C(=O)O; details: catabolic direction, 2 mM leucine, 50 μM PLP, Tris HCl pH 8.5, 22°C

B1: HlBCAT1 (Humulus lupulus) (protein)
chain: SSTSLAKSSLKQSCELSCKSNTEPSNMDWDKLGFKLMPTDYVYSMKCSNEGNFEQGRLELHGNIELSPAAAVLNYGQGIFEGTKAYRKEDGSLLLFRPDQNGVRMRIGAERMCMPSPSVDQFVDAVKQTAIANRRWVPPSGKGSLYIRPLLMGTGAVLGVAPAPQYTFLAYASPVGNYFKEGLAPLRLYVEDEFDRASPGGTGFVKTIGNYSRCLAALSRAKNKGFSDVLFLDSVHKKYVEELSSCNIFIVQGNQISTPAANGTILSGVTRSSIIEIARDHGFKVEERKIAVDELMEAEEVFCTGTAVGVASVGSITYHNKRVEFKTGSQSVSQKFYSTLIGIQTGVVEDKKGWIVEID
notes: N-terminal vector His tag (pHIS8/GW), E. coli BL21(DE3) Rosetta2 pLysS, Talon purified
- Km (purified protein [1]): 99 ± 6.53 µM
- Vmax (purified protein [1]): 4.23 µmol/min/mg
- Km (purified protein [2]): 35 ± 3.27 µM
- Vmax (purified protein [2]): 4.5 µmol/min/mg
- Km (purified protein [3]): 40 ± 9.20 µM
- Vmax (purified protein [3]): 4.84 µmol/min/mg
- Km (purified protein [4]): 340 ± 90.94 µM
- Vmax (purified protein [4]): 12.6 µmol/min/mg
- Km (purified protein [5]): 99 ± 10.75 µM
- Vmax (purified protein [5]): 2.95 µmol/min/mg
- Km (purified protein [6]): 230 ± 26.94 µM
- Vmax (purified protein [6]): 19.4 µmol/min/mg
- Km (purified protein [7]): 720 ± 55.59 µM
- Vmax (purified protein [7]): 5.59 µmol/min/mg
- Km (purified protein [8]): 30 ± 5.39 µM
- Vmax (purified protein [8]): 4.5 µmol/min/mg

B2: HlBCAT2 (Humulus lupulus) (protein)
chain: NATLSDTYSETVELADIDWDNLGFGFLPTDYMYNMKCAQGESFSNGELQRFGNIELSPSAGVLNYGQGLFEGLKAYRKEDGNILLFRPEENALRMRLGAERMCMPSPTVDQFVDAVKATVLANKRWIPPVGKGSLYIRPLLMGSGAVLGLAPAPEYTFLIYVSPVGNYFKEGVAPIHLIVEDNLHRATPGGTGGVKTIGNYAAVLKAQSAAKEQGYSDVLYLDCVHKKYLEEVSSCNIFVVKGNLIFTPAIKGTILPGITRKSIIDVARTLGFQVEERLVHVDELLDADEVFCTGTAVVVSPVGSITYHGERVPYNEGGVGAVSQQLYSALTRLQMGFIKDNMNWTVELS
notes: as for B1
- Km (purified protein [1]): 200 ± 11.72 µM
- Vmax (purified protein [1]): 96.4 µmol/min/mg
- Km (purified protein [2]): 120 ± 11.43 µM
- Vmax (purified protein [2]): 119 µmol/min/mg
- Km (purified protein [3]): 280 ± 69.56 µM
- Vmax (purified protein [3]): 43.4 µmol/min/mg
- Km (purified protein [4]): 130 ± 27.74 µM
- Vmax (purified protein [4]): 23.3 µmol/min/mg
- Km (purified protein [5]): 160 ± 11.63 µM
- Vmax (purified protein [5]): 84.7 µmol/min/mg
- Km (purified protein [6]): 250 ± 41.07 µM
- Vmax (purified protein [6]): 88.1 µmol/min/mg
- Km (purified protein [7]): 690 ± 88.51 µM
- Vmax (purified protein [7]): 136 µmol/min/mg
- Km (purified protein [8]): 210 ± 58.86 µM
- Vmax (purified protein [8]): 36.9 µmol/min/mg
